Results: patent US20160280788A1, “USE OF ANTIBODIES AGAINST ICAM-1 IN THE TREATMENT OF PATIENTS WITH RELAPSED CANCER” (BioInvent International AB, priority 2010, published 2016)

Experiments:
mouse FcγRIV = molecular target: T1, mouse FcγRIV (Mus musculus, UniProt A0A0B4J1G0); assay: Biacore binding of BI-505 isotype variants to mouse FcγRIV
T1 construct: made in house; host or cells: HEK293E (transient)
T1 sequence (A0A0B4J1G0 21-249): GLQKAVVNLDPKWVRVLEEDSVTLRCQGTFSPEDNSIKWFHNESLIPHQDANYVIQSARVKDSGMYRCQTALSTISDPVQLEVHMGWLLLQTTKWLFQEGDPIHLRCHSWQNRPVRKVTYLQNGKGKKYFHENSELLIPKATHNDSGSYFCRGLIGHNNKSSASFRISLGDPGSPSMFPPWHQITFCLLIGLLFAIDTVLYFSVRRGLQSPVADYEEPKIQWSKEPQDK
Method: His-tagged human FcγRIIIa or mouse FcγRIV were expressed transient in adherent HEK293E cells, purified using Ni-NTA chromatography and characterized using SDS-PAGE and/or Biacore. Surface plasmon resonance (SPR) measurements were perfomed using a Biacore 3000 instrument. Goat α-human-F(ab)′2 F(ab)′2 fragment (Jackson laboratories) was immobilised with a CM-5 chip using a standard amine coupling protocol. IgG1 B11, Iga4 B11, or 297Q B11 were diluted to 15 and 60 μg/mL respectively and added to the surface at […] for 3 min. His tagged human FcγRIIIa or mouse FcγRIV were pre-incubated with an α-HIS antibody (R&D Systems) at a 2:1 molar ratio before addition to the chip surface, […], 1 min. After each cycle the surface was regenerated twice with glycine buffer pH 1.7.

[1] = tested on: HUVEC, HMVEC or peripheral blood B cells; assay: ADCC of normal ICAM-1 expressing cells; assay type: cell-based
Excerpt: (§1) Buffy coats from human donors (ordered through Blodcentralen, Lund) were used to isolate peripheral blood mononuclear cells (PBMCs), and subsequently NK cells. Briefly, peripheral blood components were separated using Ficoll Paque PLUS (Amersham Biosciences, Sweden) in LeucoSep tubes (Greiner Bio-One). The PBMC fraction was removed and thoroughly washed in ice-cold DPBS (Invitrogen), before magnetic labeling and separation of the NK cell population using positive or negative NK cell isolation kits and MACS LS columns (Miltenyi Biotec). The purity of the obtained NK cell fractions was analyzed using flow cytometry, after staining with α-CD56 antibodies (BD Biosciences). Target cells were harvested, and incubated in medium with or without the respective antibodies (2 μg/mL) for 60 min on ice. Cells were thereafter washed and resuspended in cold medium before dispension into FACS tubes. Subsequently, isolated NK cells were diluted in ADCC medium and dispensed together with the respective antibody-coated target cells at varying effector/target cell ratios (40:1, 20:1, 5:1 and 1:1). All experiments were performed in triplicates. After completed incubation ToPo-Pro-3 dye and counting beads (Invitrogen) were added and cells were analyzed for membrane permeabilization using flow cytometry.

[2] = tested on: B lymphoma cell line (CL-01); assay: ADCC of tumor cells with human NK effector cells; assay type: cell-based; details: human Natural Killer effector cells
Excerpt: as §1

ARH-77 cells = assay: Subcutaneous scid/ARH-77 xenograft, prophylactic model
Method: Tumor cells were injected subcutaneously into the left flank of SCID mice. Mice received twice-weekly intraperitoneal injections with BI-505, control antibody or rituximab at doses of 20, 2 and/or 0.2 mg/kg commencing one day after tumor cell inoculation. There were 8 to 10 animals per treatment group. […] Statistical significance was calculated relative to control antibody treatment using Kruskal-Wallis Test (Nonparametric ANOVA) with Dunn's Multiple Comparisons Test (tumor volume) or the log-rank test (mouse survival) using Graphpad Instat or Prism software, respectively. Statistical significance was considered for *p<0.05, **p<0.01, and ***p<0.001.
Tumor cells were injected subcutaneously into the left flank of SCID mice. Mice received twice-weekly intraperitoneal injections with BI-505 at doses of 0.02-20 mg/kg commencing day after tumor cell inoculation. There were 8-10 animals per treatment group. […] Statistical significance was calculated relative to control antibody treatment using Kruskal-Wallis Test (Nonparametric ANOVA) with Dunn's Multiple Comparisons Test (tumor volume) or the log-rank test (mouse survival) using Graphpad Instat or Prism software, respectively. Statistical significance was considered for *p<0.05, **p<0.01, and ***p<0.001. Graphs illustrate representative experiments out of several performed.
(FIG. 7A) ARH-77 cells were injected subcutaneously into the left flank of SCID mice (n=8 per group). Mice were treated with the different BI-505 isotypes twice weekly. […] Statistical significance was calculated relative to control antibody treatment using Kruskal-Wallis Test (Nonparametric ANOVA) with Dunn's Multiple Comparisons Test. Statistical significance was considered for *p<0.05, **p<0.01, and ***p<0.001.
Mice were anaesthetized with a mixture of sevofluran and oxygen prior to myeloma cell inoculation and 1-5×10^6 myeloma cells were then subcutaneously injected in a volume of 100 μl into the left flank.

EJM myeloma cells = assay: Subcutaneous myeloma xenograft, EJM; assay type: in vivo, scid mice; details: 2 mg/kg twice weekly i.p.; vs control IgG1
Method: Antibody treatment with 2 mg/kg BI-505 or control IgG1 was started at Day 1 and was continued on a twice-weekly intraperitoneal dosing regimen. Mice were sacrificed when tumor sizes reached the ethical limit.

B1: IgG B11: fully human ICAM-1 antibody isolated from the n-CoDeR library; VH/VL sequences in FIG. 15 (SEQ ID NOs 8, 10) (antibody, V domains shown)
VH: EVQLLESGGGLVQPGGSLRLSCAASGFTFSNAWMSWVRQAPGKGLEWVAFIWYDGSNKYYADSVKGRFTISRDNSKNTLYLQMNSLRAEDTAVYYCARYSGWYFDYWGQGTLVTVSS
VL: QSVLTQPPSASGTPGQRVTISCTGSSSNIGAGYDVHWYQQLPGTAPKLLIYDNNNRPSGVPDRFSGSKSGTSASLAISGLRSEDEADYYCQSYDSSLSAWLFGGGTKLTVLG
modifications: B11 VH region; B11 VL region
binding to murine FcγRIV (mouse FcγRIV): strong binding | ADCC of normal cells [1]: did not confer ADCC | ADCC of target tumor cells [2]: mediated ADCC | tumor growth (ARH-77 cells; 20 mg/kg twice weekly i.p., commencing one day after tumor cell inoculation): completely prevent tumor-growth | survival (ARH-77 cells; IgG B11 at 2 mg/kg, ten-fold lower dose than rituximab): complete survival | anti-tumor activity (ARH-77 cells; dose of 0.2 mg/kg, dose titration): near maximal | dose at which anti-tumor activity peaked (ARH-77 cells; dose titration 0.02-20 mg/kg twice weekly i.p.): 2 mg/kg | reduction of myeloma tumor growth (EJM myeloma cells): 98%
